{"source": "patent US20090275637", "about": "“PROTEIN TYROSINE PHOSPHATASE INHIBITORS” (published 2009)", "binders": {"B1": {"name": "C13M21 (ssRNA)", "RNA": "GGGAAUUCUGUGAUCAAUUUGGCAAUCCGCCACACGAGUUC"}, "B2": {"name": "C9 shortened to M21 range (ssRNA)", "RNA": "B1 RNA with C15U, G36U", "modifications": "[15,36]"}, "B3": {"name": "C13M21 G54U (ssRNA)", "RNA": "B1 RNA with G36U", "modifications": "[36]"}, "B4": {"name": "C13 (ssRNA)", "RNA": "GGGAAUGGAUCCACAUCUACGAAUUCUGUGAUCAAUUUGGCAAUCCGCCACACGAGUUCACUGCAGACUUGACGAAGCUU"}}, "key": {"[1]": {"target": "T1, PTP1B catalytic domain (321 residues), GST fusion (Homo sapiens, UniProt P18031 P18031:1-321)", "T1 sequence": "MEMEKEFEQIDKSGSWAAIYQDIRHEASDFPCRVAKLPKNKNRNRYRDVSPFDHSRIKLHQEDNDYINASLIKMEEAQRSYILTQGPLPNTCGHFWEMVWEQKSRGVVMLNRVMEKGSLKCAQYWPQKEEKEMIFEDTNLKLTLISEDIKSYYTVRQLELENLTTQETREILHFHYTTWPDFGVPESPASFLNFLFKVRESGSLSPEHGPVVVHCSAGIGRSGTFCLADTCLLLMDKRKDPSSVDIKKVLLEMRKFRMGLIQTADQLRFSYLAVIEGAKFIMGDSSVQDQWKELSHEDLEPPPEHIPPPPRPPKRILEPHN", "experiment": "filter; 20 mM HEPES pH 7.2, 5 mM MgCl2, 125 mM NaCl, room temperature", "conditions": "tags: GST; hairpin", "protocol": "Binding assays were carried out in triplicate at 12 different PTP1B concentrations using a Schleicher & Schuell Milliblot™ apparatus with 0.45 μm BioRad TransBlot® nitrocellulose layered on top of a Hybond™-N+nylon transfer membrane. Radiolabelled RNA at 100-500 pM was heated to 75° C. for 3 minutes then cooled to room temperature before mixing with a 2× serial dilution of the target and also a no-target control. 150 μL of the mixtures at each of the 12 enzyme concentrations were pre-incubated at room temperature for 60 minutes before applying to the pre-washed membrane to allow the RNA complex to reach equilibrium (Waley, S. G. (1993) The Biochemical journal 294 Pt 1, 195-200). Following addition of 40 μL per well of each mixture to three separate wells of the Milliblot™ apparatus, the filter was washed 3 times. The dilutions and all washes used the binding buffer described above. Activity of the filters was measured using a FujiFilm BAS-1800II phosphorimager and relative density used to estimate the fraction of radiolabelled RNA retained on the nitrocellulose and nylon membranes.\nA binding assay with a concentration of 2 nM of the radiolabelled C13M21 nucleic acid ligand against PTP1B-GST was performed with the protein concentration ranging from 1 nM to 512 nM in a 2:1 serial dilution. […]"}, "[2]": {"target": "T2, PTP1B (Homo sapiens, UniProt P18031 P18031:1-321)", "T2 sequence": "T1 sequence", "experiment": "inhibition; 20 mM NaCl, 5 uM DiFMUP; p151 quotes about 600 pM", "conditions": "tags: N-terminal His6; R&D Systems 1366-PT-050; hairpin"}, "[3]": {"target": "T2, PTP1B", "experiment": "inhibition; 125 mM NaCl, DiFMUP, competitive; 20 nM from Lineweaver-Burk fit", "conditions": "tags: N-terminal His6; R&D Systems 1366-PT-050; hairpin", "protocol": "In parallel with a no-RNA control, the activity in the presence of 30 nM C13M21 was measured in duplicate for varying concentrations of DiFMUP. […] Fitting of the data in the presence of C13M21 gave a Kₘ*of 63 μM, which equates to a Kᵢ of 20 nM. The fitted Vₘₐₓ in the presence of the inhibitor was equal to or slightly greater than the no-RNA Vₘₐₓ, indicating the presence of competitive inhibition.\n(§1) To further refine the estimate of Kᵢ, an assay was run at a fixed DiFMUP concentration of 20 μM with the C13M21 and the full-length C13 nucleic acid ligand, each premixed with the PTP1B at […] in the 125 mM NaCl buffer. […] Nonlinear fitting gives an estimate of the IC₅₀ of […]. Based on a Kₘ of 25 μM, and assuming competitive inhibition, this gives a Kᵢ of 45 nM for C13M21 and a Kᵢ of 7 nM for the full-length nucleic acid ligand at 125 mM NaCl concentration."}, "[4]": {"target": "T2, PTP1B", "experiment": "inhibition; parent about 35 nM", "conditions": "tags: N-terminal His6; R&D Systems 1366-PT-050", "protocol": "Several single-base modifications of the M21 nucleic acid ligand were also tested to determine whether the changes would affect the level of inhibition. With reference to the postulated secondary structure shown in FIG. 9, the sequence at each position on the unpaired regions was modified at positions 31 through 37 and positions 42 through 46. […] From this, it appears that the other nucleotides are either critical in the contact with the PTP1B molecule or in shaping the nucleic acid ligand into a conformation that binds with the PTP1B."}, "[5]": {"target": "T2, PTP1B", "experiment": "inhibition; 125 mM NaCl, DiFMUP", "conditions": "tags: N-terminal His6; R&D Systems 1366-PT-050; hairpin", "protocol": "as §1"}, "[6]": {"target": "T2, PTP1B", "experiment": "inhibition; 20 mM NaCl, 5 uM DiFMUP", "conditions": "tags: N-terminal His6; R&D Systems 1366-PT-050; hairpin"}}, "note": "Changes are numbered by the printed parent chain. In names and notes the source's numbering stands."}
{"binder": "B1", "values": [{"measurement": "Kd", "setting": "[1]", "value": 28, "unit": "nM"}, {"measurement": "Ki", "setting": "[2]", "value": 0.3, "unit": "nM"}, {"measurement": "Ki", "setting": "[3]", "value": 45, "unit": "nM"}]}
{"binder": "B2", "values": [{"measurement": "Ki", "setting": "[4]", "value": "~250", "unit": "nM"}]}
{"binder": "B3", "values": [{"measurement": "Ki", "setting": "[4]", "value": 48, "unit": "nM"}]}
{"binder": "B4", "values": [{"measurement": "Ki", "setting": "[5]", "value": 7, "unit": "nM"}, {"measurement": "Ki", "setting": "[6]", "value": "< 0.1", "unit": "nM"}]}
